Reference: the supplement of paper PMC7877785
± gives the uncertainty stated by the source.

Test: self-splicing fitness, log relative to wild type (ln ratio); higher = more splicing; Tetrahymena group I intron in knt gene, E. coli kanamycin selection, DiMSum; sequences stand for … in CUCUCU…GGAGGGAAAAGUUAUCAGGCAUGCACCUGGUAGCUAGUCUUUAAACCAAUAGAUUGCAUCGGUUUAAAAGGCAAGACCGUCAAAUUGCGGGAAAGGGGUCAACAGCCGUUCAGUACCAAGUCUCAGGGGAAACUUUGAGAUGGCCUUGCAAAGGGUAUGGUAAUAAGCUGACGGACAUGGUCCUAACCACGCAGCCAAGUCCUAAGUCAACAGAUCUUCUGUUGAUAUGGAUGCAGUUCACAGACUAAAUGUCGGUCGGGGAAGAUGUAUUCUUCUCAUAAGAUAUAGUCGGACCUCUCCUUAAUGGGAGCUAGCGGAUGAAGUGAUGCAACACUGGAGCCGCUGGGAACUAAUUUGUAUGCGAAAGUAUAUUGAUUAGUUUUGGAGUACUCGUGGUCG
Procedure, shortened: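 Library with all eight P1ex-region intron nucleotides randomised, intron inside the knt kanamycin-resistance gene on pET-22b(+), in E. coli BL21(DE3). Cells grew overnight at 37°C or 30°C on LB agar with or without 25 μg/mL kanamycin (plus 100 μg/mL carbenicillin, 50 μM IPTG, 0.2% rhamnose), in six replicate transformations. Pooled colonies were amplicon-sequenced on Illumina HiSeq 2500. DiMSum fitness is the error-weighted combination of wild-type-normalised replicate fold changes, kanamycin versus none.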

Sequence	self-splicing fitness (ln) (30 °C)	self-splicing fitness (ln) (37 °C)
CGGCAGCAAUAUUACGUCAU	-2.83 ± 0.12	-1.09 ± 0.092
UAUAAGCAAUAUUACGGCAG	-0.0494 ± 0.099	-0.0977 ± 0.14
CUGGAGCAAUAUUACGCAAA	-3.87 ± 0.42	–
GUAGAGCAAUAUUACGUAAU	-2.04 ± 0.13	-0.878 ± 0.12
UAUCAGCAAUAUUACGAAAA	-0.436 ± 0.13	-0.123 ± 0.17
CUUAAGCAAUAUUACGACGG	-0.508 ± 0.1	-0.291 ± 0.13
CAGUAGCAAUAUUACGAUGG	-0.609 ± 0.077	-0.119 ± 0.11
CAUGAGCAAUAUUACGCGCG	-1.29 ± 0.15	0.0218 ± 0.14
UAGCAGCAAUAUUACGAACU	-0.336 ± 0.18	0.618 ± 0.14
AAUCAGCAAUAUUACGGUGA	-0.138 ± 0.076	0.345 ± 0.087
CAAAAGCAAUAUUACGUGGA	-3.4 ± 0.14	-2 ± 0.096
UAAAAGCAAUAUUACGUCUA	-0.487 ± 0.068	0.337 ± 0.097
GCAGAGCAAUAUUACGAUAC	-2.79 ± 0.28	-0.699 ± 0.22
GUCAAGCAAUAUUACGGAGA	-3.61 ± 0.26	-3.41 ± 0.39
CUCCAGCAAUAUUACGGAAC	-4.55 ± 0.46	-2.33 ± 0.21
ACAUAGCAAUAUUACGCGAA	-3.3 ± 0.13	-1.03 ± 0.098
CCAGAGCAAUAUUACGUUUG	-2.32 ± 0.11	-2.25 ± 0.17
GCGCAGCAAUAUUACGUCCU	-0.435 ± 0.12	0.126 ± 0.14
AAGGAGCAAUAUUACGGGAC	-2.34 ± 0.23	-2.36 ± 0.41

Sequence	self-splicing fitness (ln) (30 °C)	self-splicing fitness (ln) (37 °C)
UGGUAGCAAUAUUACGAGGA	-2.9 ± 0.26	-2.09 ± 0.32
GUUUAGCAAUAUUACGAAUC	–	-0.202 ± 0.45
AAUAAGCAAUAUUACGAUCG	-1 ± 0.081	-0.0681 ± 0.096
UUAUAGCAAUAUUACGUCUA	-0.963 ± 0.15	-0.336 ± 0.11
UGUUAGCAAUAUUACGGUGA	-1.51 ± 0.18	-0.192 ± 0.19
GUCUAGCAAUAUUACGUUCA	-0.225 ± 0.11	0.35 ± 0.12
GUCAAGCAAUAUUACGAAGC	-3.84 ± 0.27	-2.54 ± 0.2
CGUAAGCAAUAUUACGUUCG	-0.989 ± 0.056	-0.453 ± 0.078
CAUCAGCAAUAUUACGCAGG	-0.441 ± 0.062	-1.15 ± 0.079
GGAUAGCAAUAUUACGUGAA	-1.83 ± 0.07	-1.13 ± 0.081
CCGUAGCAAUAUUACGCGAU	-2.48 ± 0.22	-3.66 ± 0.35
AACGAGCAAUAUUACGUUGC	-4.01 ± 0.18	-3.16 ± 0.19
CCUUAGCAAUAUUACGUUUG	-3.99 ± 0.24	-2.47 ± 0.18
UAACAGCAAUAUUACGCUGA	-3.33 ± 0.2	-1.61 ± 0.1
CCCCAGCAAUAUUACGUGGU	-2.64 ± 0.1	-2.98 ± 0.2
CUGGAGCAAUAUUACGAUGG	-3.66 ± 0.26	-1.47 ± 0.22
CAAAAGCAAUAUUACGUGUG	-2.48 ± 0.055	-1.09 ± 0.059
AAGAAGCAAUAUUACGAUGA	-0.962 ± 0.096	-0.249 ± 0.09
CUAAAGCAAUAUUACGGACG	0.255 ± 0.084	-0.189 ± 0.092
